{"source": "paper PMC6699855", "about": "(The Journal of Biological Chemistry, 2019)", "molecules": {"B1": {"name": "met-Evasin-3 (Evasin-3 1–66 with an N-terminal methionine) (natural protein)", "chain": "MLVSTIESRTSGDGADNFDVVSCNKNCTSGQNECPEGCFCGLLGQNKKGHCYKIIGNLSGEPPVVRR"}, "B2": {"name": "Evasin-3: small salivary chemokine-binding protein from the brown dog tick Rhipicephalus sanguineus (UniProt p0c8e8, 1–66) (protein)", "chain": "LVSTIESRTSGDGADNFDVVSCNKNCTSGQNECPEGCFCGLLGQNKKGHCYKIIGNLSGEPPVVRR"}}, "key": {"[1]": {"test": "pooled human plasma from healthy volunteers", "settings": "37 °C, up to 18 h"}, "[2]": {"test": "Proteolytic stability in human plasma", "assay_type": "in vitro ADME", "settings": "100 μg in 100 μl human plasma, 37 °C, stopped with 20% TCA; for degradation in human plasma after 18 h: LC-MS/HPLC", "experimental": "The proteolytic stability of full-length Evasin-3 and its variants was tested in pooled human plasma from healthy volunteers (Fig. S12A).\n100 μg of Evasin-3 variants were dissolved in 100 μl of normal plasma taken from a healthy volunteer and incubated at 37 °C. At a required time point reaction was stopped by addition of 15 μl of 20% TCA to a 15-μl aliquot of a sample and analyzed by LC-MS."}, "[3]": {"system": "CXCL8-induced migration of polymorphonuclear neutrophils", "test": "PMN migration assay (chemotaxis chamber)", "assay_type": "cell-based", "settings": "1 nM CXCL8 plus 10 nM variant; human neutrophils, 5-μm membrane, 90 min at 37 °C; n = 10 (Evasin-3), 9 (tEv3 17–56), 5 (tcEv3 16–56 dPG); CXCL8 alone 624 ± 458, control 98 ± 83", "experimental": "To assess the anti-CXCL8 activity of Evasin-3 variants, polymorphonuclear neutrophil (PMN) migration assays were performed. The addition of 1 nM CXCL8 induced significant migration of PMNs (624 ± 458 PMN/mm^2) compared with controls (98 ± 83 PMN/mm^2) in the absence of chemoattractant (Fig. 6). Migration was inhibited by addition of 10 nM of Evasin-3 (206 ± 203 PMN/mm^2).\nHuman neutrophils were isolated from the blood of healthy donors as described previously ([57]). Isolated neutrophils were resuspended at (10^6 cells/ml) in RPMI 1640 medium supplemented with 1% fetal calf serum. A 12-well chemotaxis chamber with a 5-μm polycarbonate membrane (Neuroprobe, Gaithersburg, MD) was used to assess the migration of neutrophils toward the chemoattractant CXCL8 (1 nM) in presence or absence of Evasin-3 variants (10 nM). The chemoattractant was added in the lower wells, and the neutrophils (1 × 10^5 cells) were seeded in the upper wells. After incubation of 90 min at 37 °C, the nonmigrated cells were carefully removed, and the membrane was stained with Diff-Quick stain (Eberhard Lehmann GmbH, Berlin, Germany). Migrated cells were visualized by light microscopy, counted manually in three fields of view, and expressed as cells/mm^2. The data were analyzed by GraphPad Prism 8.0 software using one-way analysis of variance statistical test."}, "[4]": {"target": "human CXCL8 (interleukin-8), recombinant, residues 6–77 (human)", "test": "SEC; protein alone at 0.1 mg/ml; BioSep SEC-s2000; 50 mM sodium phosphate pH 6.65, 150 mM NaCl; masses from the maker's calibration curve"}, "[5]": {"target": "human CXCL8 (interleukin-8), recombinant, residues 6–77 (human)", "test": "NMR titration"}, "[6]": {"target": "T1, CXCL8–GAG (fondaparinux) complex (Homo sapiens, UniProt P10145)", "T1 construct": "human CXCL8 (UniProt: p10145, 6–77); made in house; host or cells: E. coli BL21 (DE3) Star", "T1 sequence (P10145 28-99)": "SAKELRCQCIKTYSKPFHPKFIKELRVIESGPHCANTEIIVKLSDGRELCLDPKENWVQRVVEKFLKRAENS", "test": "GAG competition for [15N,13C]CXCL8 binding by NMR", "settings": "30 μM met-Evasin-3 added to 25 μM [15N,13C]CXCL8 with fondaparinux (up to 10-fold excess), 25 °C, pH 7.1; 15N-1H HSQC", "source_text": "To study competition between Evasin-3 and GAGs for CXCL8 binding, [^15N,^13C]CXCL8 was first titrated with increasing concentrations of dalteparin (Fragmin®, Pfizer) and low-molecular-mass heparin with the average molecular mass of 5 kDa. […] Fondaparinux (Arixtra®, GSK), which comprises the five central sulfated sugar units in heparin, has the well-defined composition and the lower molecular mass (1.7 kDa) comparing with Fragmin. For that reason, fondaparinux facilitates collection of NMR spectra of higher quality and was chosen for further NMR titration experiments. […] Observed changes were consistent with results of previous studies describing the interaction of CXCL8 with several heparin oligosaccharides ([29]).\nFor GAG-binding experiments low-molecular-mass heparin dalteparin (commercial name Fragmin®, Pfizer) and fondaparinux (commercial name Arixtra®, GSK) were purchased from a pharmacy as solutions for injections. 25 μM of [^15N,^13C]CXCL8 was titrated by increasing concentration of aliquots from a stock solution of 5 mg/ml fondaparinux or Fragmin to the final GAG concentration of 0.2 mM at 25 °C, pH 7.1. In the next step, 30 μM of met-Evasin-3 was added to the solution to monitor the displacement of bound fondaparinux and follow Evasin-3–CXCL8 complex formation by a series of 1D proton and ^15N-^1H HSQC spectra."}, "[7]": {"target": "human CXCL8 (interleukin-8), recombinant, residues 6–77 (human)", "test": "NMR titration; [15N,13C]CXCL8 (200 μM) titrated with unlabelled met-Evasin-3; 15N-1H HSQC and filtered NOESY; 25 mM NaAc-d3 pH 4.5, 37 °C; equilibrium after up to 1 h"}, "[8]": {"target": "T2, chemically synthetized CXCL8-Biotin (C-terminally biotinylated human CXCL8) (human, UniProt P10145 28-99, biotin at the C-terminus)", "T2 construct": "also called immobilized human CXCL8; source: chemically synthetized; not shown: biotin, C-terminal, kept", "T2 sequence (looked up)": "T1 sequence (P10145 28-99)", "test": "SPR", "settings": "both partners purified"}, "CXCL8": {"target": "CXCL8", "settings": "binding to CXCL8; read-out: Kd value previously measured; cited from earlier work", "source_text": "In contrast to Evasin-1, where both the N and C termini play a crucial role in chemokine binding ([27], [38]), neither the N nor C terminus of Evasin-3 participate in CXCL8 binding. […] To study the effect of termini on binding, we synthesized two novel CXCL8-binding peptides: linear tEv3 17–56 and cyclic tcEv3 16–56 dPG, both retaining the ICK bundled core of the native protein. The ..."}, "human CXCL8": {"target": "T3, human CXCL8 (Homo sapiens, UniProt P10145)", "T3 construct": "made in house; host or cells: chemical synthesis (no expression host)", "T3 sequence (P10145 21-99)": "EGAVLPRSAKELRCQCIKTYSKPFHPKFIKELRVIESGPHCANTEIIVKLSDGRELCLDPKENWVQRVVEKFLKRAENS", "test": "SPR biosensor affinity to immobilized CXCL8", "assay_type": "binding", "settings": "SPR sensorgrams; association 250 s, dissociation 300 s, 30 μl/min; PBS pH 7.4, 0.05% Tween 20"}}, "note": "Entries after “also recorded” stand apart in the source; their conditions may differ. Positions of bridges follow the written chain, without caps; N, C: chain ends. Non-standard residues stand in square brackets, D forms with d. Residues, ends and D or L forms follow the SMILES beside them."}
{"molecule": "LVSTIESRTSGDGADNFDVVSCNKNCTSGQNECPEGCFCGLLGQNKKGHCYKIIGNLSGEPPVVRR", "values": [{"measurement": "cleaved bond", "setting": "[1]", "result": "Arg65-Arg66, 2 h; also recorded: V64-Arg65, 2 h"}]}
{"molecule": "cyclo(CFCGLLGQNKKGHCYKIIGN[dP]GNFDVVSCNKNCTSGQNECPEG) (disulfide 1-29, 3-33, 14-40) [tcEv3 16–56 dPG]", "values": [{"measurement": "degradation in human plasma after 18 h", "setting": "[2]", "result": "equally high proteolytic stability"}, {"measurement": "PMN migration in presence of Evasin-3 variant", "setting": "[3]", "result": "160 ± 65", "unit": "PMN/mm^2"}]}
{"molecule": "human CXCL8 (interleukin-8), recombinant, residues 6–77 (natural protein)", "values": [{"measurement": "stoichiometry N", "setting": "[4]", "result": 2}]}
{"molecule": "truncated Evasin-3 (tEv3 17–56) (from UniProt P0C8E8 37-76) (peptide)", "values": [{"measurement": "stoichiometry N", "setting": "[5]", "result": 1}]}
{"molecule": "CC[C@H](C)[C@H](NC(=O)[C@H](CCCCN)NC(=O)[C@H](Cc1ccc(O)cc1)NC(=O)[C@@H]1CSSC[C@@H]2NC(=O)[C@H](CCC(=O)O)NC(=O)[C@H](CC(N)=O)NC(=O)[C@H](CCC(N)=O)NC(=O)CNC(=O)[C@H](CO)NC(=O)[C@H]([C@@H](C)O)NC(=O)[C@@H]3CSSC[C@H](NC(=O)[C@H](Cc4ccccc4)NC(=O)[C@H](CSSC[C@H](NC(=O)[C@H](CO)NC(=O)[C@@H](NC(=O)[C@@H](NC(=O)[C@H](CC(=O)O)NC(=O)[C@@H](N)Cc4ccccc4)C(C)C)C(C)C)C(=O)N[C@@H](CC(N)=O)C(=O)N[C@@H](CCCCN)C(=O)N[C@@H](CC(N)=O)C(=O)N3)NC(=O)CNC(=O)[C@H](CCC(=O)O)NC(=O)[C@@H]3CCCN3C2=O)C(=O)NCC(=O)N[C@@H](CC(C)C)C(=O)N[C@@H](CC(C)C)C(=O)NCC(=O)N[C@@H](CCC(N)=O)C(=O)N[C@@H](CC(N)=O)C(=O)N[C@@H](CCCCN)C(=O)N[C@@H](CCCCN)C(=O)NCC(=O)N[C@@H](Cc2c[nH]cn2)C(=O)N1)C(=O)N[C@H](C(=O)NCC(=O)N[C@@H](CC(N)=O)C(=O)O)[C@@H](C)CC", "note": "[tEv3 17–56] (H-FDVVSCNKNCTSGQNECPEGCFCGLLGQNKKGHCYKIIGN-OH; disulfide 6-21, 10-23, 17-34)", "values": [{"measurement": "degradation in human plasma after 18 h", "setting": "[2]", "result": "equally high proteolytic stability"}]}
{"molecule": "B1", "values": [{"measurement": "effect on GAG binding of CXCL8", "setting": "[6]", "result": "completely abolished GAG binding"}, {"measurement": "stoichiometry N", "setting": "[7]", "result": 1}]}
{"molecule": "FDVVSCNKNCTSGQNECPEGCFCGLLGQNKKGHCYKIIGN", "note": "[truncated Evasin-3 (tEv3 17–56)]", "values": [{"measurement": "Kd", "setting": "[8]", "result": 27, "unit": "nM"}]}
{"molecule": "cyclo(NFDVVSCNKNCTSGQNECPEGCFCGLLGQNKKGHCYKIIGN[dP]G) (ends not checked)", "note": "[truncated cyclic Evasin-3 16–56 with a D-Pro-Gly turn (tcEv3 16–56 dPG)]", "values": [{"measurement": "Kd", "setting": "[8]", "result": 13, "unit": "nM"}]}
{"molecule": "B2", "values": [{"measurement": "Kd", "setting": "CXCL8", "result": 0.43, "unit": "nM"}, {"measurement": "association and dissociation kinetics compared with truncated variants", "setting": "human CXCL8", "result": "slower association and dissociation kinetics"}, {"measurement": "degradation in human plasma after 2 h", "setting": "[2]; 2 h, LC-MS", "result": "degraded nearly quantitatively"}, {"measurement": "degradation in human plasma after 18 h", "setting": "[2]", "result": "only ΔC2 could be detected"}, {"measurement": "PMN migration in presence of Evasin-3 variant", "setting": "[3]", "result": "206 ± 203", "unit": "PMN/mm^2"}]}
